Results taken from PMC10253590, “The Product of the Fission Yeast fhl1 Gene Binds to the HomolE Box and Activates In Vitro Transcription of Ribosomal Protein Genes”.

T1: Fhl1 (Schizosaccharomyces pombe, UniProt O14270 1-743)
T1 sequence: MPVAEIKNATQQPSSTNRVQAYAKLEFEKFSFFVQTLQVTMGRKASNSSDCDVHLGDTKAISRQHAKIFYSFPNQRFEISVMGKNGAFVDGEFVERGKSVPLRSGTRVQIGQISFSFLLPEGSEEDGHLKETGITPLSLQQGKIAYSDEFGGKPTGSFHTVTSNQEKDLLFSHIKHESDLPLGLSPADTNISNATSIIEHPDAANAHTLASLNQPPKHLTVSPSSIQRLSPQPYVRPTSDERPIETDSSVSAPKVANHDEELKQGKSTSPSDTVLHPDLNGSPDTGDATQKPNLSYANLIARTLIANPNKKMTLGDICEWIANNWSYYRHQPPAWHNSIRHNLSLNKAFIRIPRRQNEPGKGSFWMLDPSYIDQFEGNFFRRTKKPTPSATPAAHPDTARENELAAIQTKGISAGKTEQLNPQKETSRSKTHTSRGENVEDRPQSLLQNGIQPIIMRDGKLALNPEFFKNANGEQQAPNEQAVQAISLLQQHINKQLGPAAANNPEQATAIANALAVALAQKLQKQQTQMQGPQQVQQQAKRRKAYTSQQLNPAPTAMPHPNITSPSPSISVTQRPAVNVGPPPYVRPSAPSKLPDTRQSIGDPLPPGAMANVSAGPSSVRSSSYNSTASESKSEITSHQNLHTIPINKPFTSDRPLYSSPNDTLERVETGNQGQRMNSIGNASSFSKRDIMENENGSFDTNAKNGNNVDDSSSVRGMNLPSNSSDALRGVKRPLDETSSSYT

B1: HD (HomolD) cold competitor (dsDNA)
DNA 1: TGAAAACAGTCACATTTTAC
DNA 2: GTAAAATGTGACTGTTTTCA
B2: HE cold competitor (dsDNA)
DNA 1: TTCGTTGAGGGTAGGGTTGC
DNA 2: GCAACCCTACCCTCAACGAA
B3: mHE cold competitor (dsDNA)
DNA 1: TTCGTTGAGTGTAGTGTTGC
DNA 2: GCAACACTACACTCAACGAA
B4: HomolE probe (two tandem HomolE boxes) (dsDNA)
DNA 1: TTCGTTGAGGGTAGGGTTGAGGGTAGGGTTATGC
DNA 2: GCATAACCCTACCCTCAACCCTACCCTCAACGAA

Key:
[1] = target: T1, Fhl1; experiment: competition; EMSA; 50 ng cold competitor vs N1 probe; 20 mM HEPES pH 7.9, 50 mM KCl, 10 mM MgCl2, 0.1 mM EDTA, 5% glycerol, 5 mM DTT, 0.1 mM PMSF, 5 ug acetylated BSA, 50 ng poly(dG-dC), no PEG; 5 min 25 C then 15; conditions: protein: recombinant; tags: His tag (pET15b; Ni-NTA purified)
[2] = target: T1, Fhl1; experiment: competition; EMSA; 12.5, 25, 50 ng cold competitor vs N1 probe; 20 mM HEPES pH 7.9, 50 mM KCl, 10 mM MgCl2, 0.1 mM EDTA, 5% glycerol, 5 mM DTT, 0.1 mM PMSF, 5 ug acetylated BSA, 50 ng poly(dG-dC), no PEG; 5 min 25 C then 15; conditions: protein: recombinant; tags: His tag (pET15b; Ni-NTA purified)
[3] = target: T1, Fhl1; experiment: EMSA; 10 ng Fhl1; poly(dG-dC); 20 mM HEPES pH 7.9, 50 mM KCl, 10 mM MgCl2, 0.1 mM EDTA, 5% glycerol, 5 mM DTT, 0.1 mM PMSF, 5 ug acetylated BSA, 50 ng poly(dG-dC), no PEG; 5 min 25 C then 15; conditions: protein: recombinant; tags: His tag (pET15b; Ni-NTA purified); label: 32P 5' end

Row | Binder | binding result [1] | other results
1 | B1 | no binding | –
2 | B2 | – | binding result [2]: binds
3 | B3 | no binding | –
4 | B4 | – | binding result [3]: binds
